In publication PMC3934934, “The Self-Interaction of a Nodavirus Replicase Is Enhanced by Mitochondrial Membrane Lipids” (PLoS ONE, 2014):

Tests used:
Conditions in all cases: one partner purified
[1] = biological target: T1, MBP-tagged full-length (FL) WhNV protein A (Wuhan nodavirus (WhNV), UniProt Q3KSM3 1-1014); test: pull-down
T1 construct: also called MBP-protA; 1–1014 MBP/protA; source: E. coli strain TB1, purified (amylose resin); not shown: MBP, N-terminal, kept
T1 sequence: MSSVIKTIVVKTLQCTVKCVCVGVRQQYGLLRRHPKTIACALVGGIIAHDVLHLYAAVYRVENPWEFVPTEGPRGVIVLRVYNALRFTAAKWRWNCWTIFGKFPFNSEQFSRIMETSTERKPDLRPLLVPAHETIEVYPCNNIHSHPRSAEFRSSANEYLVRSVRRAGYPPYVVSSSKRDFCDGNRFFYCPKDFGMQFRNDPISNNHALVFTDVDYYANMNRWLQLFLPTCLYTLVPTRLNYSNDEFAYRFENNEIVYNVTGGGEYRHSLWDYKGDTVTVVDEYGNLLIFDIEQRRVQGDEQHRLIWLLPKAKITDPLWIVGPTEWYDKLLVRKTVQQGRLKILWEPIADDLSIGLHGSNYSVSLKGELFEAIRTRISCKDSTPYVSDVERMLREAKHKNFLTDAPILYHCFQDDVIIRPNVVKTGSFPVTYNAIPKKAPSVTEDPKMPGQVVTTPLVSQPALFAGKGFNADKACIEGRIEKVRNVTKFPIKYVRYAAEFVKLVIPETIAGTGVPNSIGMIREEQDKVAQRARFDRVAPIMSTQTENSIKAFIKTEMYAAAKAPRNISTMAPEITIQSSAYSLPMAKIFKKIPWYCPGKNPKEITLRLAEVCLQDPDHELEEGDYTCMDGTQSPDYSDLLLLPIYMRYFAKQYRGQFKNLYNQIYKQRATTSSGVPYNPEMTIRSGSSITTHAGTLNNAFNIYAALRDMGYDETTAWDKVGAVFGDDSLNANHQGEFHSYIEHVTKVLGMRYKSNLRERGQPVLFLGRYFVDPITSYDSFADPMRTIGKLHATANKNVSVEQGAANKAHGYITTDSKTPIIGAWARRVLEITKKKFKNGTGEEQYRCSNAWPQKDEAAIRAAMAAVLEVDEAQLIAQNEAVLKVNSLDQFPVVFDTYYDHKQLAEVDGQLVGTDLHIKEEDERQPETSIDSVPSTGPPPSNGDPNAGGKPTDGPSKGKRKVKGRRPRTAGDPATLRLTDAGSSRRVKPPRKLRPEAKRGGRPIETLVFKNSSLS

[2] = biological target: T2, MBP-protA fragment aa 481–659 (Wuhan nodavirus (WhNV), UniProt Q3KSM3 481-659); test: pull-down; MBP fusion protein (1 µM) held on amylose resin, His-tagged protein (1 µM) in vitro translated in rabbit reticulocyte lysate; room temperature, 4 hrs; no lipids; Western blot with anti-His; signals given as % of FL to FL protein A self-interaction
T2 construct: source: E. coli strain TB1, purified (amylose resin); not shown: MBP, N-terminal, kept
T2 sequence: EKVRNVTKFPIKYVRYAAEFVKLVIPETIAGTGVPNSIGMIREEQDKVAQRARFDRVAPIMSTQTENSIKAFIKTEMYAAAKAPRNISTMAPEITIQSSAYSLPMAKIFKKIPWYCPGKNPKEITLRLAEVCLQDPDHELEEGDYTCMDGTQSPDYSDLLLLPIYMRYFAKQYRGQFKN

[3] = biological target: T3, MBP-protA fragment aa 1–839 (Wuhan nodavirus (WhNV), UniProt Q3KSM3 1-839); test: as above
T3 construct: also called 1–839 MBP/protA; source: E. coli strain TB1, purified (amylose resin); not shown: MBP, N-terminal, kept
T3 sequence: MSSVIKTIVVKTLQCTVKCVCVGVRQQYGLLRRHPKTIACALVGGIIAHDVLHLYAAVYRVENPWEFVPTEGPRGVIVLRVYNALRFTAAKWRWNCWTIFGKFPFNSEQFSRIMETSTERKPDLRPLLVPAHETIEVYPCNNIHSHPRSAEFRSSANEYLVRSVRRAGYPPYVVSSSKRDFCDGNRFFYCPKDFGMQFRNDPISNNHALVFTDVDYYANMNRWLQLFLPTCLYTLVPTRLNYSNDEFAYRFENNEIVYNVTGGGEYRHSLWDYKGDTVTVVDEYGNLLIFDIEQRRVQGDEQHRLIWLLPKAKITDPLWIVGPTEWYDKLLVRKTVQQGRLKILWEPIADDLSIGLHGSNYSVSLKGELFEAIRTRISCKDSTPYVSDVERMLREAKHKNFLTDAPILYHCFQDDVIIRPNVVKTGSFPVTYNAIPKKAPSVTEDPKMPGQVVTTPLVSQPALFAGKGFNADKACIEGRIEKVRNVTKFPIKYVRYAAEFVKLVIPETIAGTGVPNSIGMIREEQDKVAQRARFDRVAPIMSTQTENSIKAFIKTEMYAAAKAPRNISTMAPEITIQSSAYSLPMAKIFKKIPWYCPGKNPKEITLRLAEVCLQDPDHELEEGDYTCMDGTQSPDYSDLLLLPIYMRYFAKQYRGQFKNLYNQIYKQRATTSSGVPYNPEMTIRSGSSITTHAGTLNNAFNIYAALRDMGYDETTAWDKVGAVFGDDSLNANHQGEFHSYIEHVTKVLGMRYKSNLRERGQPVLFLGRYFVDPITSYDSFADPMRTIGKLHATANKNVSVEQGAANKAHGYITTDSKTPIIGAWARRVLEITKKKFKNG

B1: His-tagged WhNV protein A, in vitro translated (natural protein)
chain: T1 sequence
notes: also called His-protA; FL His-protA; source: in vitro translated in nuclease-treated rabbit reticulocyte lysates
- fold of the self-interaction without MMLs, at 1 µg/µl MMLs [1]: ~4.6 fold
- fold of the self-interaction without MMLs, at 2 µg/µl MMLs [1]: ~9 fold
- fold of the self-interaction without MMLs, at 5 µg/µl MMLs [1]: ~12 fold
- self-interaction efficiency, % of FL to FL protein A self-interaction [2]: 17%
- self-interaction efficiency, % of FL to FL protein A self-interaction [3]: 108%
